These results are taken from patent US20150165065A1 (AVIDBIOTICS, published 2015).

The target of test [1] is T1, integrin αVβ5 (UniProt P06756 31-992; P18084 24-719).
T1 construct: Coated on the ELISA plate
The test is described as follows: phage ELISA, coated integrin, anti-M13-HRP. On the procedure:
(§1) The phage vectors were independently transformed into NEBαF′tet competent E. coli cells. Phages produced by the transformed cells were tittered and their concentrations adjusted by dilution to 10¹³ per ml. The ability of the soluble MICA molecules in each of the phage preparations was assayed by an ELISA using the intended target proteins, integrin αVβ3 or αVβ5, as capture agents on the ELISA plate. After the respective integrins were adhered to the bottoms of the wells of the ELISA plate, the wells were washed and blocked, as well known in the field. Each sample (100 μl) of phage preparation was added to wells containing αVβ3 or αVβ5, incubated and washed. The phages captured by the integrins were detected by HRP-conjugated antibody to the M13 phage coat developed with Ultra TMB-ELISA substrate and the optical densities read.
(In general: An ELISA detects its analyte on a solid surface through an enzyme-linked reagent.)

The target in test [2] is T2, integrin αVβ3 (UniProt P06756 31-992; P05106 27-718).
T2 construct: Coated on the ELISA plate
The test is described as follows: phage ELISA, coated integrin, anti-M13-HRP. On the procedure: as §1

For test [3], the target named is T1, integrin αVβ5. The test is described as follows: phage ELISA, coated integrin, anti-M13-HRP. On the procedure:
(§2) The ELISA assays of the integrin target-binding of M13 phages displaying α3 domains with binding peptide inserts grafted into more than one loop were performed as follows. After the respective integrins were adhered to the bottoms of the wells of the ELISA plate, the wells were washed and blocked. Each sample (100 μl) of phage preparation was added to wells containing αVβ3 or αVβ5, incubated and washed. The phages captured by the integrins were detected by HRP-conjugated antibody to the M13 phage coat developed with Ultra TMB-ELISA substrate and the optical densities read.
This is another data set of the same source.

For test [4], the target named is T2, integrin αVβ3. The test is described as follows: phage ELISA, coated integrin, anti-M13-HRP. On the procedure: as §2
This is another data set of the same source.

The target in test [5] is T1, integrin αVβ5. The test is described as follows: phage ELISA, coated integrin, anti-M13-HRP. The source holds these as a separate data set.
Test [6] concerns the target T2, integrin αVβ3. In words: phage ELISA, coated integrin, anti-M13-HRP. This is another data set of the same source.
In test [7] the target is T1, integrin αVβ5. In words: ELISA, coated integrin, anti-MICA-HRP.
Test [8] deals with T2, integrin αVβ3. In words: ELISA, coated integrin, anti-MICA-HRP.
The target in test [9] is T3, biotinylated human NKG2D (human, UniProt P26718 78-216, limits assumed, biotinylated (site not stated)).
T3 construct: Surface-coated in biolayer interferometry (Octet); also called recombinant biotinylated NKG2D
T3 sequence (looked up): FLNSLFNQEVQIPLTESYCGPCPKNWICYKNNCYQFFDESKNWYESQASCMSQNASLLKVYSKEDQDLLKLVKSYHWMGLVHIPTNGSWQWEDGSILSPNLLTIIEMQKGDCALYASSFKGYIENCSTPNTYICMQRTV
In words: BLI (Octet), Kd = kOFF/kON. For orientation: In BLI a coated tip is dipped into the sample, and binding shifts an interference pattern.

Test [10] deals with T4, human NKG2D-Fc (human, UniProt P26718 78-216, limits assumed).
T4 construct: construct not described; also called human NKG2D-Fc reagent; not shown: Fc part
T4 sequence (looked up): T3 sequence (looked up)
The test is described as follows: competition ELISA, 2 nM human NKG2D-Fc on coated WT sMICA. The source says: (§3) As for the NKG2D ligands (NKG2DLs) in the above example, we attached polypeptides directly to each of these 4 modified α1-α2 NKG2DLs using a linker peptide. The 4 His-tagged proteins (SEQ ID NOs.: 131-134) were expressed in insect cells and purified to characterize their NKG2D binding affinities and kinetic binding parameters. Using a competitive binding ELISA, we determined the relative NKG2D binding affinities of the 4 modified α1-α2 variants.

Test [11] concerns the target T3, biotinylated human NKG2D. In words: BLI (Octet), coated biotinylated human NKG2D, 100 nM analyte.
In test [12] the target is T4, human NKG2D-Fc. The test is described as follows: competition ELISA, human NKG2D-Fc on coated WT sMICA.
Text: as §3

For test [13], the target named is T3, biotinylated human NKG2D. In words: BLI (Octet).
The target of test [14] is NKG2D receptor on NKL effector cells (human) (UniProt P26718). In words: cell-based or functional assay.

Residue numbers refer to the chain shown, from its start. Numbers in names are those of the source.

T1 sequence (P06756 31-992, chain 1 of 2): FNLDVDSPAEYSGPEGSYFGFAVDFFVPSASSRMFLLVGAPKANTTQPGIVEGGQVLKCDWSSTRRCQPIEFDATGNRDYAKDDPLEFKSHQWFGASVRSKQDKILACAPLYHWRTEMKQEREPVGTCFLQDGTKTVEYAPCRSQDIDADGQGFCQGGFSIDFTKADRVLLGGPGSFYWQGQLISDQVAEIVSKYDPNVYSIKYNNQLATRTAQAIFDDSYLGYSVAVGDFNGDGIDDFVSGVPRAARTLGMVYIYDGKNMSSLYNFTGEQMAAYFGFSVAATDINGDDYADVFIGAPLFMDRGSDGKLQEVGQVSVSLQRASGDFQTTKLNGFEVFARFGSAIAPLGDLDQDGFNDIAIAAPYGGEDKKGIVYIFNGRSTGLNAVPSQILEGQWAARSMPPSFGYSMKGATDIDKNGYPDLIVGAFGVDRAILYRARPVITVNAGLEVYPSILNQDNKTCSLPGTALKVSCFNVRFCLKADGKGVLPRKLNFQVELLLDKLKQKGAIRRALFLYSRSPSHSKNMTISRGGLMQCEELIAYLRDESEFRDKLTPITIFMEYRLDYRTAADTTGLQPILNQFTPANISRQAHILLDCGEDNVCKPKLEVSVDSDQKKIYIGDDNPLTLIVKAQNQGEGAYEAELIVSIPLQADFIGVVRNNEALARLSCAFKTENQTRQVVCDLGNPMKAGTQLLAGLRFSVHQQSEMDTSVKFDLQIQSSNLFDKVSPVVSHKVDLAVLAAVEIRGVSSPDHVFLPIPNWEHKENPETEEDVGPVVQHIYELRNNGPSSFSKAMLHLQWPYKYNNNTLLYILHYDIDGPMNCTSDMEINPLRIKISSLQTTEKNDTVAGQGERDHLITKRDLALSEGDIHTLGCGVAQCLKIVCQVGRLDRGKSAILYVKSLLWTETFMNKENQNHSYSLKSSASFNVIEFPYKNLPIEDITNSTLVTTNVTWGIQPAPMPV
T1 sequence (P18084 24-719, chain 2 of 2): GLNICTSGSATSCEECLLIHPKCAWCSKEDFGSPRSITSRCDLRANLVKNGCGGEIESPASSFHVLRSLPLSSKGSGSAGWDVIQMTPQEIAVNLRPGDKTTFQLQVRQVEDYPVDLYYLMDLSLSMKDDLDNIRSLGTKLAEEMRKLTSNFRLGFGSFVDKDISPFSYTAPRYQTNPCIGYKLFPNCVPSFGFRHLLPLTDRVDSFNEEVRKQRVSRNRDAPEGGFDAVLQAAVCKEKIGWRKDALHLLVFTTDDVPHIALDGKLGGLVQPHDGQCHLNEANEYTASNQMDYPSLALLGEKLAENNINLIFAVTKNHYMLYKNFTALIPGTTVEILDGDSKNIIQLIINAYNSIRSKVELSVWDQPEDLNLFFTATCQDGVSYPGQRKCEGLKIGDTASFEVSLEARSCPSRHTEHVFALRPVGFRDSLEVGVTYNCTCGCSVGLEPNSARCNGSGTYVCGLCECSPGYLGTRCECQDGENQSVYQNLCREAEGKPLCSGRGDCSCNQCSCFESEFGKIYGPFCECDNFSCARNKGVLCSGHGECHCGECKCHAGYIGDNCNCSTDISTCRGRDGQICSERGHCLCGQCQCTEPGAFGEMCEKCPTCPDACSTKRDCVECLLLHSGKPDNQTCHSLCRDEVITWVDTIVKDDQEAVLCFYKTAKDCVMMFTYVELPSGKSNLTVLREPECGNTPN
T2 sequence (P06756 31-992, chain 1 of 2): as the sequence (P06756 31-992, chain 1 of 2) above
T2 sequence (P05106 27-718, chain 2 of 2): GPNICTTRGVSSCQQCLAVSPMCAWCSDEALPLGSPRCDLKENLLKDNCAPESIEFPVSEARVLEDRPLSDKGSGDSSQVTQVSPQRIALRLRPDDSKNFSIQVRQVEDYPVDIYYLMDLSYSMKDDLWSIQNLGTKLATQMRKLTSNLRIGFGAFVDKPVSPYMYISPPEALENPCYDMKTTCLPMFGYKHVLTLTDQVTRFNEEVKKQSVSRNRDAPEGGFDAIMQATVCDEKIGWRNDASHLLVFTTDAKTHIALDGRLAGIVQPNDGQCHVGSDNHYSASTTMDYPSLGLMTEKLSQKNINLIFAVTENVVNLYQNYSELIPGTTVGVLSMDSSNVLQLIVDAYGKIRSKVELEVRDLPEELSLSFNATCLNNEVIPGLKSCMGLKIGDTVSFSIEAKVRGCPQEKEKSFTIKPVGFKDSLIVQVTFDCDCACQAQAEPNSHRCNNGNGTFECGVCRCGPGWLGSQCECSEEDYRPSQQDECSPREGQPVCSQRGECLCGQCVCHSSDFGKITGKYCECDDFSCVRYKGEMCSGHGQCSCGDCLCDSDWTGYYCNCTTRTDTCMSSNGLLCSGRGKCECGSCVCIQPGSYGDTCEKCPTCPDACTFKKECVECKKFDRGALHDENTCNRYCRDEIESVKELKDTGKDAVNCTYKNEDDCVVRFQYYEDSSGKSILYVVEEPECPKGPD

B1: M13 phage pKK93 displaying MICA α3 domain with loop 1 insert 3.2 (designed binder)
chain: TVPPMVNVTRTSRGDHPRTQVTCRASGFYPWNITLSWRQDGVSLSHDTQQWGDVLPDGNGTYQTWVATRICQGEEQRFTCYMEHSGNHSTHPVPSGK
notes: also called 1-3.2; not shown: C-terminal portion of M13 gene III protein, fused at codon position 198
With B1, the αvβ5 signal in the test with integrin αVβ5 [1] amounted to 0.291 OD; with integrin αVβ5 [3], 0.774 OD. The αvβ3 signal with integrin αVβ3 [2] is 0.284 OD; with integrin αVβ3 [4], 0.616 OD.

B2: M13 phage pKK95 displaying MICA α3 domain with loop 1 insert 3.4 (designed binder, not shown: large carriers)
chain: TVPPMVNVTRSARGDSDHRVTCRASGFYPWNITLSWRQDGVSLSHDTQQWGDVLPDGNGTYQTWVATRICQGEEQRFTCYMEHSGNHSTHPVPSGK
In turn, B2 returned a αvβ5 signal with integrin αVβ5 [5] of 0.232 OD. The αvβ3 signal in the test with integrin αVβ3 [6] was determined as 0.345 OD.

B3: M13 phage pKK106 displaying wild type MICA α3 domain fused to pIII (other)
chain: B2 chain with A12E, R13A, G14S, D15E, S16G, D17N, H18I, R19T
notes: also called WT; not shown: C-terminal portion of M13 gene III protein, fused at codon position 198
B3: the αvβ5 signal with integrin αVβ5 [1] and in the test with integrin αVβ5 [3] was 0 OD each time. Besides, the αvβ3 signal in the test with integrin αVβ3 [2] and with integrin αVβ3 [4] was 0 OD each time.

B4: M13 phage pKK112 displaying MICA α3 domain with tight loop 1 insert T-AMY (loop 1 from tendamistat) (designed binder, not shown: large carriers)
chain: TVPPMVNYQSWRYSQCRASGFYPWNITLSWRQDGVSLSHDTQQWGDVLPDGNGTYQTWVATRICQGEEQRFTCYMEHSGNHSTHPVPSGK
Turning to B4, in the test with integrin αVβ5 [5], the αvβ5 signal stood at 0.515 OD. This molecule also had a αvβ3 signal in the test with integrin αVβ3 [6] of 0.46 OD.

B5: M13 phage pKK100 displaying MICA α3 domain with loop 1 insert 3.2sp (designed binder, not shown: large carriers)
chain: TVPPMVNVTSGGSGGGSTSRGDHPRTQSGGSGGGVTCRASGFYPWNITLSWRQDGVSLSHDTQQWGDVLPDGNGTYQTWVATRICQGEEQRFTCYMEHSGNHSTHPVPSGK
B5 returned a αvβ5 signal with integrin αVβ5 [5] of 0.186 OD. In the test with integrin αVβ3 [6], the αvβ3 signal came to 0.201 OD.

B6: M13 phage pKK102 displaying MICA α3 domain with loop 1 insert 5.1sp (designed binder)
chain: B5 chain with T18V, S19T, H23T, P24F, R25T, T26Q, Q27S
notes: also called 1-5.1sp; not shown: C-terminal portion of M13 gene III protein, fused at codon position 198
On to B6, for which the αvβ5 signal came out at 0.771 OD in the test with integrin αVβ5 [1] and 1.5 OD with integrin αVβ5 [3]. For the same molecule, the αvβ3 signal was 1.02 OD with integrin αVβ3 [2] and 1.45 OD with integrin αVβ3 [4].

B7: M13 phage pKK103 displaying MICA α3 domain with loop 1 insert 5.3sp (designed binder)
chain: B5 chain with T18H, S19L, R20A, G21R, D22G, H23D, P24D, R25L, Q27Y
notes: also called 1-5.3sp; not shown: C-terminal portion of M13 gene III protein, fused at codon position 198
On to B7, for which the αvβ5 signal with integrin αVβ5 [1] was determined as 0.491 OD; with integrin αVβ5 [3], 0.814 OD. Further, the αvβ3 signal in the test with integrin αVβ3 [2] was 0.688 OD; with integrin αVβ3 [4], 0.587 OD.

B8: soluble MICA generated from pKK35 (loop 3 insert His10sp) (designed binder)
chain: EPHSLRYNLTVLSWDGSVQSGFLTEVHLDGQPFLRCDRQKCRAKPQGQWAEDVLGNKTWDRETRDLTGNGKDLRMTLAHIKDQKEGLHSLQEIRVCEIHEDNSTRSSQHFYYDGELFLSQNLETKEWTMPQSSRAQTLAMNVRNFLKEDAMKTKTHYHAMHADCLQELRRYLKSGVVLRRTVPPMVNVTRSEASEGNITVTCRASGFYPWNITLSWRQDGVSLSHDTQQWGDVLPDGNGTYQTWVATRISGGSGGGSHHHHHHHHHHSGGSGGGCYMEHSGNHSTHPVPSGK
For the molecule B8, in the test with integrin αVβ5 [7], the αvβ5 signal turned out to be 0.392 OD and the αvβ5 signal/ng (signal/ng MICA) worked out at 2.31. In the test with integrin αVβ3 [8], this molecule had a αvβ3 signal of 0.419 OD and a αvβ3 signal/ng (signal/ng MICA) of 2.46.

B9: M13 phage pKK91 displaying MICA α3 domain with loop 3 insert His10sp (designed binder)
chain: TVPPMVNVTRSEASEGNITVTCRASGFYPWNITLSWRQDGVSLSHDTQQWGDVLPDGNGTYQTWVATRISGGSGGGSHHHHHHHHHHSGGSGGGCYMEHSGNHSTHPVPSGK
notes: also called 3-His10; not shown: C-terminal portion of M13 gene III protein, fused at codon position 198
As to B9, the αvβ5 signal in the test with integrin αVβ5 [1] came out at 0.078 OD. The molecule further had a αvβ3 signal in the test with integrin αVβ3 [6] of 0.303 OD.

B10: WT α1-α2 domain soluble MICA protein (competitor and analyte) (ligand)
chain: EPHSLRYNLTVLSWDGSVQSGFLTEVHLDGQPFLRCDRQKCRAKPQGQWAEDVLGNKTWDRETRDLTGNGKDLRMTLAHIKDQKEGLHSLQEIRVCEIHEDNSTRSSQHFYYDGELFLSQNLETKEWTMPQSSRAQTLAMNVRNFLKEDAMKTKTHYHAMHADCLQELRRYLKSGVVLRRTVPPMVQVTRSEASGGSGDRVTITCRASQDVSTAVAWYQQKPGKAPKLLIYSASFLYSGVPSRFSGSGSGTDFTLTISSLQPEDFATYYCQQSYTTPPTFGQGTKVEIKGGSSRSSSSGGGGSGGGGEVQLVESGGGLVQPGGSLRLSCAASGFTFTSTGISWVRQAPGKGLEWVGRIYPTNGSTNYADSVKGRFTISADTSKNTAYLQMNSLRAEDTAVYYCARTYGIYDLYVDYTEYVMDYWGQGTLVTVSSGGSSRSSSSGGGGSGGGGDIQMTQSPSSLSASGGSGQITVTCRASGFYPWNITLSWRQDGVSLSHDTQQWGDVLPDGQGTYQTWVATRISQGEEQRFTCYMEHSGQHSTHPVPSGKGSHHHHHH
notes: also called wild-type (WT); WT MICA
As a reminder, the Kd is the concentration at which binding is half-saturated. The low end stands for higher affinity, the high end for lower affinity. In general, IC50 refers to the concentration at which inhibition is half-maximal. One may read the koff as the first-order rate constant of dissociation. By kon is commonly meant the second-order rate constant of association. A higher kon goes with faster complex formation. On to B10, for which the Kd in the test with biotinylated human NKG2D [9] turned out to be 13.8 nM. For the same molecule, in the test with human NKG2D-Fc [10], the IC50 came to 19.4 nM. In the test with biotinylated human NKG2D [11], the koff worked out at 0.0018 s⁻¹ and the kon came to 130000 M⁻¹ s⁻¹.

B11: WED-MICA (WED-α1-α2 domain; N69W, K152E, K154D) (designed binder)
chain: B10 chain with N69W, K152E, K154D
notes: Whole entry as named
As for B11, the “apparent Kd (pooled screen)” value with biotinylated human NKG2D [9] is 5.9 nM. The same molecule had an IC50 with human NKG2D-Fc [10] of 4.4 nM. Moreover, in the test with biotinylated human NKG2D [11], the “apparent koff (pooled screen)” value worked out at 0.0017 s⁻¹ and the “apparent kon (pooled screen)” value was found to be 290000 M⁻¹ s⁻¹.

B12: α1-α2 variant 15 (designed binder)
chain: B10 chain with N69W, K125N, K152E, K154D, H161R
notes: His-tagged protein from insect cells, modified α1-α2 domain with an attached polypeptide
B12: in the test with biotinylated human NKG2D [9], the Kd amounted to 1.5 nM. For the same molecule, in the test with human NKG2D-Fc [10], the IC50 was determined as 1.7 nM. In addition, the “fold better binding than WT NKG2DL (IC50)” value in the test with human NKG2D-Fc [12] is 11 fold. In the test with biotinylated human NKG2D [11], this molecule returned a koff of 0.00011 s⁻¹ and a kon of 70000 M⁻¹ s⁻¹.

B13: α1-α2 variant 16 (designed binder)
chain: B10 chain with N69W, K125L, K152E, K154D, H161R
notes: as for B12
For the molecule B13, the Kd with biotinylated human NKG2D [9] came out at 0.5 nM. Besides, in the test with biotinylated human NKG2D [13], the “fold affinity increase relative to WT α1-α2” value was roughly 30 fold and the “fold reduction in the off-rate relative to WT” value turned out to be 18 fold. In the test with human NKG2D-Fc [10], this molecule showed an IC50 of 0.7 nM. Moreover, the “fold better binding than WT NKG2DL (IC50)” value in the test with human NKG2D-Fc [12] was 27 fold. Also, the NK-mediated lysis of FGFR3-expressing P815 cells (calcein release) in test [14] is 15 fold. Further, in the test with biotinylated human NKG2D [11], the koff came out at 9e-05 s⁻¹ and the kon is 200000 M⁻¹ s⁻¹.

B14: M13 phage pKK109 displaying MICA α3 domain with tight loop 1 insert T-3.3 (designed binder, not shown: large carriers)
chain: TVPPMVNRVPRGDSDLTCRASGFYPWNITLSWRQDGVSLSHDTQQWGDVLPDGNGTYQTWVATRICQGEEQRFTCYMEHSGNHSTHPVPSGK
In the test with integrin αVβ5 [5], B14 showed a αvβ5 signal of 0.167 OD. In the test with integrin αVβ3 [6], this molecule gave a αvβ3 signal of 0.23 OD.
